Assays:
Wistar rats [1] = test: Continuous intraventricular administration of nesfatin antisense RNA, food intake and body weight; assay type: in vivo, rat
Method: As the antisense RNA against nesfatin-1 gene, was used a morpholino RNA which sandwiches a translational start site, as follows.
The administration of nesfatin antisense RNA was carried out into the ventricle by an osmotic pump for 12 consecutive days using an osmotic pump. Among 8 week-old male Wistar rats (purchased from Nippon SLC), those individuals weighing 200-250 g were selected and used. The rats received intraperitoneal administration of 40 mg/kg body weight of pentobarbital sodium for anesthesia. After the hair was removed from the head, they were fixed in a brain stereotaxic apparatus (David Kopf Instruments, Model 962) and the scalp was incised and a 23G needle (guide cannula) was implanted so that the tip reaches the third ventricle (2.5 mm behind the bregma, 9.5 mm from the surface). One week after implanting the guide cannula, the animals were subjected to the experiment. The osmotic pump used was Alzet's Model 2002 that was primed in sterilized physiological saline from the day before use. Nesfatin antisense RNA (antisense administration group) dissolved in physiological saline that was filter-sterilized with 0.22 μm Millex GV filter, or missence RNA (ATcGTgCTCCACgTCATCTaCAcAG) sterilized in the same manner that dissolved in sterilized physiological saline (control group) were injected into the osmotic pump immediately before use. […] The measurement of the amount of food intake started from the day after the cannula and the osmotic pump were implanted, and the weight of the residual food was measured at 9 a.m. every day and, by determining the difference from the weight of the food on the previous day, the amount of food intake of the day (24 hours) was calculated. From day 6 after the start of administration, body weight was measured at the time of measuring the amount of food intake, and changes in body weight were also recorded.

nesfatin-1 = test: Western blotting of nesfatin-1 in hypothalamus after antisense RNA administration (densitometry); assay type: in vivo; settings: rat hypothalamus, day 12; control group 14.3±1.2 AU
Method: On day 12 after the start of administration, the individuals in each group were sacrificed, and the hypothalamus in the brain was removed. Using the sample extracted, the expression of nesfatin was confirmed by Western blotting with nesfatin-1 Ab. Western blotting was carried out in a manner similar to those described in Working Examples 13 and 12. The concentration of bands stained in Western blotting was determined by densitometry.

Wistar rats [2] = test: Administration of recombinant nesfatin into the third ventricle, amount of food intake; assay type: in vivo, rat
Method: Rats used were Wistar rats (purchased from Nippon SLC), and the animals were housed under a cycle of 12 hours of the light period from 6 a.m. to 6 p.m. and 12 hours of the dark period from 6 p.m. to 6 a.m. the next morning and fed a powder chew (Nippon Clea, CE-2), and kept at 22° C., and housing was continued under a similar condition during the experiment. For the experiment, among 8-9 week-old male Wistar rats, those individuals weighing 200-250 g were used. For administration, 5 μl of saline (control) or recombinant nesfatin prepared in Working Example 5 dissolved to 0.2 pmol, 0.6 pmol and 3.0 pmol in 5 μl of PBS was administered per individual (N=5 for each group). The rats received intraperitoneal administration of 40 mg/kg body weight of pentobarbital sodium for anesthesia. After the hair was removed from the head, they were fixed in a brain stereotaxic apparatus (David Kopf Instruments, Model 962) and the scalp was incised and a 23G needle (guide cannula) was implanted so as to reach the third ventricle (2.5 mm behind the bregma, 9.5 mm from the surface). One week after implanting the guide cannula, the animals were subjected to the experiment. After recovering from the surgery, a 29G cannula for injection was inserted into the guide cannula under no anesthesia, and 5 μl of PBS or the matured mouse nesfatin solution in PBS was administered at a rate of 1 μl/second. After fixing the cannula as it was for 2-3 minutes after the administration, the cannula was extracted, and the animals were returned to the individual cages. One, three, and six hours thereafter, the weight of the food was determined to record the amount of food intake, which was used as an index of feeding behavior. For the test of significant difference, analysis of variance was used.
The PCR product obtained was subjected to 1% agarose gel electrophoresis to excise an amplified band, which was purified with QIAEX-II kit (QIAGEN). The amplified DNA excised was cleaved with restriction enzymes SpeI and NotI, and ligated to pET41a(+) plasmid vector (Novagen) cleaved with restriction enzymes SpeI and NotI, using the Quick DNA ligase kit (New England Biolabs). From the cloned DNA, a clone, which has no errors in mutant portions introduced after analyzing DNA sequences in a similar manner to Working Example 5 and other nucleotide sequences, can be selected to obtain a vector for expressing the KR-AA mutant. The expression and purification were carried out in a similar manner to Working Example 5. The amino acid sequence of the KR-AA mutant obtained is set forth in SEQ ID NO: 61. Wt (normal nesfatin), which was prepared in Working Example 5, was used. 5 pmol each of the KR-AA mutant (Mut) peptide and the normal nesfatin (Wt) peptide were administered to the third ventricle of rats in a similar manner to Working Example 6. One, three, six and 12 hours thereafter, the weight of the food was determined to record the amount of food intake, which was used as an index of feeding behavior.
Also, in the same manner as in Working Example 6, after 5 pmol of nesfatin was administered into the rat ventricle, the amount of food intake was determined during 0-1 hour/1-3 hours/3-6 hours after the administration. The control group used was the one that only received physiological saline (0 pmol). For testing of significant difference, analysis of variance was used.

Wistar rats [3] = test: Administration of nesfatin-1, nesfatin-2, nesfatin-3, nesfatin-2/3 into the third ventricle, amount of food intake; assay type: in vivo, rat; settings: given alone into the third ventricle (nesfatin-1 5 pmol; leptin 1 μg); vs saline control
Method: Samples used for intracerebral administration were PBS alone (vehicle group), or nesfatin-1, nesfatin-2, nesfatin-3 or nesfatin-2/3 prepared in Working Example 10 each dissolved in PBS, and 25 pmol was administered per individual into the third ventricle immediately before the dark period. Rats used were Wistar rats (purchased from Nippon SLC) and were housed as in Working Example 6, and among 8-9 week-old male Wistar rats, those individuals weighing 200-250 g were selected and used (N=5). The technique of intraventricular administration and the measurement of the amount of food intake in rats were carried out in a method similar to those in Working Example 6. In the measurement of the amount of food intake, the reduced amount of food at 1 hour after administration (0-1 hr) and 2 hours after administration (1-3 hrs) was determined as food intake.
In the same condition above, 1, 5 or 25 pmol of nesfatin-1 as a sample was administered per rat individual into the third ventricle immediately before the dark period. In this experiment, the amount of food intake was determined at 1 hour after administration (0-1 hr).
The experimental condition was similar to that in Working Example 12, and 5 pmol of nesfatin-1 was administered into the third ventricle of the rat brain immediately before the start of the dark period, the amount decreased of the food (the amount of food intake) during 1 hour immediately after administration (0-1 hr), during 2 hours from 1 hour after the administration (1-3 hr), during 3 hours from 3 hours after the administration (3-6 hr), and during 6 hours from 6 hours after the administration (6-12 hr) was measured as the amount of food intake. As the control group, the amount of food intake by individuals that received physiological saline alone was measured.
The experimental condition was similar to that in Working Example 12, and for a group that received 5 pmol of nesfatin-1 alone into the third ventricle of the rat brain immediately before the start of the dark period and a group that received 5 pmol of nesfatin-1 and 8 μg of anti-nesfatin-1 antibody (nesfatin-1 IgG), the amount of food intake for 1 hour after administration was measured and compared to that for the control group (physiological saline alone was administered). Also, for a group that received only leptin (Rat leptin: R & D Systems, 598-LP-01M) (1 μg) which is known to have an activity of suppressing food intake by intraventricular administration and a group that received leptin and anti-nesfatin-1 antibody, its effect on food intake was also studied.

## 5-ATGGTCCTCCACCTCATCTTCAGAG-3 (all phosphorodiamidate morpholino (PMO)) [nesfatin antisense RNA]
Wistar rats [1]; 40 μg, osmotic pump, third ventricle, 12 days, from day 1, vs missense RNA control
  amount of food intake during 24 hours: an increase in the amount of food intake
Wistar rats [1]; day 6 after the start of administration, vs missense RNA control
  body weight: no difference
Wistar rats [1]; day 7 and after, P<0.05 vs missense RNA control
  body weight: significant increase in body weight
nesfatin-1
  expression of nesfatin-1, band intensity by densitometry: 8.5±0.7 AU

B1: recombinant nesfatin: recombinant matured mouse nesfatin (SEQ ID NO: 26) expressed in E. coli as GST fusion and cleaved with thrombin (protein)
chain: GSPIDVDKTKVHNTEPVENARIEPPDTGLYYDEYLKQVIEVLETDPHFREKLQKADIEEIRSGRLSQELDLVSHKVRTRLDELKRQEVGRLRMLIKAKLDALQDTGMNHHLLLKQFEHLNHQNPNTFESRDLDMLIKAATADLEQYDRTRHEEFKKYEMMKEHERREYLKTLSEEKRKEEESKFEEMKRKHEDHPKVNHPGSKDQLKEVWEETDGLDPNDFDPKTFFKLHDVNNDGFLDEQELEALFTRELEKVYNPQNAEDDMIEMEEERLRMREHVMSEIDNNKDRLVTLEEFLRATEKKEFLEPDSWETLDQQQLFTEDELKEYESIIAIQENELKKRAEELQKQKEDLQRQHDHLEAQKQEYHQAVQHLEQKKLQQGIAPSGPAGELKFEPHT
modifications: Chemically-synthesized nesfatin mutant protein
Wistar rats [2]; 4 pmol or 20 pmol into the brain ventricle, 0-1 hour, p<0.01 vs 0 pmol
  amount of food intake: significantly reduced
Wistar rats [2]; 5 pmol intraventricular, 0-1 hour (p<0.01), 1-3 hours (p<0.05) and 3-6 hours (p<0.001)
  amount of food intake: significant reduction in the amount of food intake
Wistar rats [2]; 5 pmol intraventricular, 0-1 hour, 1-3 hour and 3-6 hours
  control activity of food intake: a significant control activity of food intake was observed
Wistar rats [2]; 5 pmol intraventricular, 6-12 hours
  amount of food intake: no difference
Wistar rats [2]; 20 pmol into the third ventricle, any of 0-1 hour/1-3 hours/3-6 hours, P<0.01 vs control
  amount of food intake: significant activity of suppressing food intake
Wistar rats [2]; 1, 4 and 20 pmol into the third ventricle, 0-1, 1-3 and 3-6 hours, vs saline
  amount of food intake: reduction in the amount of food intake was noted in a dose dependent manner
Wistar rats [3]
  amount of food intake for 1 hour after administration: significantly decreased
